Laboratory results as given in patent US12344663B2, “Anti-C3 antibodies and antigen-binding fragments thereof and their uses for treating eye or ocular diseases” (CDR-Life AG, priority 2021, dated 2025).

Assay: In vitro BrM permeation assay, Ussing chamber
Type: in vitro ADME, porcine
Conditions: 0.1 mg/ml, up to 72 h, in words
Procedure: Porcine Bruch's membrane samples are used for this measurement. Porcine eyes are collected from the slaughterhouse) no more than 6 hours after the animals were sacrificed and stored at 4° C. until use (on same day).
Preparation of enriched Bruch's Membrane (BrM): The eyes are placed into a disposable petri-dish and any residual tissue surrounding the eyeball is removed. The eyeball is incised next to the iris with a scalpel and the front part of the eye as well as lens, vitreous and retinal tissue are removed from the eyecup. […]
Sampling and membrane integrity analysis: For sampling at different timepoints (4 h, 24 h, 48 h and 72 h) the solution in the single compartments is mixed by carefully pipetting up and down and 90 μl were transferred separately from each sample and diffusate chamber to collection tubes. […] Accumulation of blue particles in the second compartment is observed and camera pictures are recorded to control for overall membrane integrity.
Sample analysis: 15 μl of each solution from the sample and diffusate chambers are effectively loaded on 2 precast polyacrylamide gels (NuPAGE Bis-Tris gels) together with a similar amount of stored mastermix as loading control. The first gel is analyzed by standard SDS-PAGE and Coomassie-based staining methods for protein detection (anti-C3 scFv). […]
Evaluation: Pictures of the SDS-gels are analyzed using ImageJ2 software (Fiji). […]

B1: Clone I: humanized anti-C3 scFv, VH SEQ ID NO: 20, VL SEQ ID NO: 21; scFv SEQ ID NO: 26 or 27 (antibody, V domains shown)
VH: QVQLVESGGGSVQPGRSLRLSCAASGFTFSNYAMNWVRQAPGKGLEWVAVISYDGSNKYYADSVKGRFTISRDNSKNTLYLQMNSLRAEDTASYYCARAVGYHHARLDPWGCGTSVTVSS
VL: QLVLTQSPSASASLGASVKLTCTLSSAHKTYTIDWYQQQPEKCPRYLMQLKSDGSYTKGSGIPDRFSGSSSGAERYLTISSLQSEDEADYYCGTEGVGGYVFGGGTKLTVLG
modifications: VH; VL
Diffusion/penetration through porcine Bruch's membrane: superior diffusion ability
